According to the domain aggregation screens of Martell et al. (2025):

Test: soluble fraction after stress (log2 fold change); higher = more stays soluble; pooled small domains, quantitative proteomics
Details: stress: 75 degC
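Further: 20 min heating vs room temperature control held 20 min.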

In order of rising “soluble fraction (log2)” value:
1. HMRQIRELFRLKFGSLLPTSDRQIAAQLGVARSTVAEYLERARAAGLSWPLPLDLSDADLEERLFA  -3.08
2. HMRRELDSEHKRQEILFAAKRLLLAEGYDATSMSRLAKEAGVAPNTLYWYFKDKDELLIAILDELVAE  -2.74
3. HMRSTIYEFTVPPGQLESIRLDVYITSFVENATRSKVQEAIKQGYVWVNGKHEKASYTMLPGDKIYIELPI  -2.65
4. HMRTEGNLGAKVRVLRRSQGMTQAELARRLGISPSYLNLIEHNRRSFTADLLVKLAKILPVNLKT  -2.5
5. HMRTITYSITPAHAGMSVERYLKQQHGYSTRTLVKLKHYPQGLQLNGQHARTVDLLQAGDTLAVTFLD  -2.42
6. HMRQTGWVTADSLNVRARPSLQAERVEKVTYGQQVQIMFKQGQWYQIATENGKIGWVSSEYIAAVSP  -2.4
7. HMRVDDITDTILNVLKEQGGFISVTDKSSPETINKLFGVSKKTYKKAIGAIYRKKLIIIEDDGIRLNS  -2.4
8. HMRSFGTVAQARGRWKAFYVGPDKRRHTPGVTFSNPIRAQGWLAQELTLIELGQWTPPAQRREKAEVAS  -2.26
9. HMRTVEQFQIRKIYAISNALGISDSRADEDELHVLVSGLTGKDSIKELTYREASVVIERLEELQ  -2.22
10. HMRQSKMREAILAAVSAQKLEISDLHVWRIGEQRYAAIIGLATTQAESVSALRDSLAQMDKLVHLTIDQ  -2.21
11. HMRQDEKTLLYWIGAQVKREGKLIKTSTAQYLVEKTGTDMENLEKELEKLFAYTLDEKEITPAAIDEI  -1.77
12. HMRRSKVMLESILDEIPQMGQARRAALLEQFGSVAALRKASLAEIAMTPGIGEKIAVIIFEYLQKSSH  -1.69
13. HMRRMTEEQSKLFQGLVSIVQTTLVADMEKGAVTPLLIAEKVDFVADNLYPGKDIDRKEAVAELIRRFSLW  -1.67
14. HMRVDRSALDSIPGVGPGRKRTLLHHFGSARAVEASGLADLESIRGISKALARKIYDFFHPE  -1.55
15. HMRTMFGQRLRLARKRAGLSMQALADRVTPSVSAQAISKYEADQMMPSSSVLVGLGKALGVSLDFLVGGQ  -1.41
16. HMRPQIAIDAIQALSLIMRTENKEDPTYLESRRVVSDAVAKRLSLNPTDLNRAWSRAPRDHQIAVLSALTQ  -1.34
17. HMRTNVDISPKILEWVLSQVRNRTTNDVIETIQIWIKGEKPPTFNQVEKISKATGVPLGYFFLKTPPVED  -1.34
18. HMRSQLALVVRTGESQRLDNFLVNNLAWKSRNRLQGLIREGLVTVNGEKTKASRRVHLDDLVEIHL  -1.31
19. HMRPTAWEQVSRHIDQHGSIGNTEVRKAMETENVLAASKQIKKWLEQGLLIILNPTAGTRARRYSKPNM  -1.19
20. HMRTTYKTRLETLLAGPMSAGDRRFASSLLDFYNRKNRLTPGRARFVAQLEDRYSAEALAARQG  -1.19
21. HMRSVEVAAEPGMVLEDRQTGFVGAVVAVEKSGGTHLVVLEDRHGLRRGFPLGPGFWLEGRPVVLAPPP  -1.01
22. HMRRTEKEIEQDVMRAIATIISEKGISSVTIKEVSNLSKTDVIVLERRFKNDEGLIKAYTSQ  -1
23. HMRPTDVLNYDESMRILNFSNNRVGFKHLMDAKGIEQVIFKNRKIGYRKSEILALKSELEAEQK  -0.958
24. HMRSLATFEEEKIALRFWNYLQSEGIKSTLEEEGPRDWVIWVIDEEKIPSATQSLEKFNLNPDDPAFSN  -0.784
25. HMRSLVDRSVQAVTDHIRENALRVGDSLPGEAYFATSLGVSRAVMREAFGALAALRVIDVGNGRKPRVGAI  -0.687
26. HMRTPLTGREEQVATLIGRGMTNSEIAESLSVDESTVKTHIGSILRKVHLRDRLQVALWFHGLPIE  -0.67
27. HMRPYAYGTGRRKSSTARVHLIPNGSGSITINGRTLDEYFGLETLKLIVRQPLAATETAEKFDVEATVV  -0.638
28. HMRTANREKRIEASVKMMKAGYPVGYIIARVFMYEGWEEDYRQLLIYLSEKIPKDVSNPITFEVIS  -0.622
29. HMRTLSAGVAGRLRADILNGLLEPGRRLGMAELTERYGAGMSPVREALSRLVGEGLVQSEGQRGFRVA  -0.446
30. HMRQMSEELQSAKEALEDRRTQEKAVLLLMEHRNISNDEAHRLLRKLAMDQGKRLPEVARALVSMAGVL  -0.319
31. HMRSKTSYAVWTPIQIDAGSQMQALQSKGFNTVLMEGGISVGIRSDKAQAQALLNRLQGAGFTGQLREVN  -0.173
32. HMRRGKLGMASRLEQIPGIGPKKRKALLKAFGNSIDAIKSAPVEDLMKVKGINLVLAESIKEL  -0.11
33. HMRPRGTRLPTGWTPSSDALDWTKAEKPGLDPLQTLEKFRDYWTAQPGQKGVKTDWDATWRNWVRREIP  -0.104
34. HMRRSKQERQQAIKTLISNEQIQRQEDLVRKLNEAGWEVTQATISRDITEMQLVKVPLPTGGFAYAVM  -0.0517
35. HMRPSGTAGILRYLSSGAIRGIGATTAQRLVSEFGEKTLDVMENEPERVAMLKGISKSKAEDFSLQLKQS  -0.0414
36. HMRSMEKRLTAKVKRVQEGVQAKSQAGEQPFEVVKLMQRFPKLMQFGKHAEAETVLDKALELLGEE  -0.0318
37. HMRSFADEGTVEEWIKQAIRENEAAVADYRKGKETAVKFLMGQVMRLSKGEANPADLEDKIKAKLD  0.0142
38. HMRSIVETLTDRELEIFQLIGNGFSTGEIARRLNLSPHTIETHRKNIKDKLGLSSGSELNKQAIQWVLSS  0.244
